Data set [1] deals with purified human PSA (shorter isoform), mCherry-Strep-tag II removed by thrombin (human, UniProt P55786-1 45-919). The data set can be described thus: cryo-EM structure.
The data set “cryo-EM structure” concerns the molecule itself. The data set can be described thus: cryo-EM structure.

This is an account of results in article PMC12407707 (bioRxiv, 2025).

purified human PSA (shorter isoform), mCherry-Strep-tag II removed by thrombin, sequence (P55786 45-919): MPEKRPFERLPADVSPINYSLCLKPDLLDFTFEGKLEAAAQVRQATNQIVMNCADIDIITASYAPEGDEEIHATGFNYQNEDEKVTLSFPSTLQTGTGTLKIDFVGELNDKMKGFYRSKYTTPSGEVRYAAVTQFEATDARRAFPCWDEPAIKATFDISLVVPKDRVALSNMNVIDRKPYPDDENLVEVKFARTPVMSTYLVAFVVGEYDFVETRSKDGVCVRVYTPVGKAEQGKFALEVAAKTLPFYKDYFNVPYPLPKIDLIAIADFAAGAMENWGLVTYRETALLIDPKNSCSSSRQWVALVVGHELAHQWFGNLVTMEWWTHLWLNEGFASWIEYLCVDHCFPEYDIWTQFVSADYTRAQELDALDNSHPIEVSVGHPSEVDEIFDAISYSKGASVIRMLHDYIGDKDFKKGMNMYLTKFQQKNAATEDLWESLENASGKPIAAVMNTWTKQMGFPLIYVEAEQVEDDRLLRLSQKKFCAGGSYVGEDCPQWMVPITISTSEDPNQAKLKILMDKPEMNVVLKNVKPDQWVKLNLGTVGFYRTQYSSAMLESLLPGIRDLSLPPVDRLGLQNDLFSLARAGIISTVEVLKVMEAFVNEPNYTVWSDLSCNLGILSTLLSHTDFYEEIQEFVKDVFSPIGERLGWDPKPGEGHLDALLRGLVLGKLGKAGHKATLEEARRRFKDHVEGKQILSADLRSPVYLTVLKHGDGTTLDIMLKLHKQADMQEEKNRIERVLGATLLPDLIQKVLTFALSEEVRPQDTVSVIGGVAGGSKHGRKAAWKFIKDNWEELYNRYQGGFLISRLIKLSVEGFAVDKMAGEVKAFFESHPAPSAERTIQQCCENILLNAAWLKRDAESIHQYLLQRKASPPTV

B1: purified human SWELL1 homo-hexamer, tag removed by thrombin (cryo-EM sample) (natural protein)
chain: MIPVTELRYFADTQPAYRILKPWWDVFTDYISIVMLMIAVFGGTLQVTQDKMICLPCKWVTKDSCNDSFRGWAAPGPEPTYPNSTILPTPDTGPTGIKYDLDRHQYNYVDAVCYENRLHWFAKYFPYLVLLHTLIFLACSNFWFKFPRTSSKLEHFVSILLKCFDSPWTTRALSETVVEESDPKPAFSKMNGSMDKKSSTVSEDVEATVPMLQRTKSRIEQGIVDRSETGVLDKKEGEQAKALFEKVKKFRTHVEEGDIVYRLYMRQTIIKVIKFILIICYTVYYVHNIKFDVDCTVDIESLTGYRTYRCAHPLATLFKILASFYISLVIFYGLICMYTLWWMLRRSLKKYSFESIREESSYSDIPDVKNDFAFMLHLIDQYDPLYSKRFAVFLSEVSENKLRQLNLNNEWTLDKLRQRLTKNAQDKLELHLFMLSGIPDTVFDLVELEVLKLELIPDVTIPPSIAQLTGLKELWLYHTAAKIEAPALAFLRENLRALHIKFTDIKEIPLWIYSLKTLEELHLTGNLSAENNRYIVIDGLRELKRLKVLRLKSNLSKLPQVVTDVGVHLQKLSINNEGTKLIVLNSLKKMANLTELELIRCDLERIPHSIFSLHNLQEIDLKDNNLKTIEEIISFQHLHRLTCLKLWYNHIAYIPIQIGNLTNLERLYLNRNKIEKIPTQLFYCRKLRYLDLSHNNLTFLPADIGLLQNLQNLAITANRIETLPPELFQCRKLRALHLGNNVLQSLPSRVGELTNLTQIELRGNRLECLPVELGECPLLKRSGLVVEEDLFNTLPPEVKERLWRADKEQA
On to B1, for which the binding result in data set [1] was “binds”. Also, the “stoichiometry N” value in the data set “cryo-EM structure” was found to be 6.
